Data on five molecules can be found in patent US8603949B2, “Libraries of optimized cytochrome P450 enzymes and the optimized P450 enzymes” (California Institute of Technology, priority 2003, dated 2013).

Data set [1] can be described thus: Thermostability (loss of Soret band at increasing temperatures). The data set is classed as physicochemical. To be noted: cell extracts heated 10 minutes. As to the method:
Thermostability was assayed by monitoring the loss of the Soret band at increasing temperatures. […] However, thermostability may be important for retention of catalytic activity: the two chimeras that lacked peroxygenase activity were also the least thermostable.
Cell extracts were heated in a thermocycler for 10 minutes at various temperatures, followed by cooling to 4° C. Extracts were centrifuged for 5 minutes at 3500×g to remove any precipitates. Carbon monoxide reduced difference spectroscopy was used to quantitate the amount of P450. The reduction of the carbon monoxide peak was monitored over a range of temperatures.

The nature of data set [2]: Peroxidase activity with ABTS and H2O2. In kind it is biochemical. To be noted: for Peroxidase activity: 10 mM ABTS, 20 mM H2O2, pH 5.0, activities <0.2 not detectable (N.D.); for peroxidase activity relative to parents: ABTS. The text has this: P450s can reduce peroxide to water (and a proton) using a mechanism similar to that of peroxidases, although the intrinsic rate for P450s is many orders of magnitude slower. (Mansuy, D., Comp Biochem Physiol C Pharmacol Toxicol Endocrinol 121, 5-14 (1998)). It has been proposed that the earliest P450 function may have been as a peroxidase. (Gotoh, O., Cytochrome P450, 2nd Edition, pp. 255-272 (1993)). To investigate how recombination affects P450 peroxidase activity, the colorimetric substrate 2,2′-azino-bis(3-ethylbenzothiazoline-6-sulfonate) (ABTS) was used to monitor this reaction (Childs et al., Biochem J 145,93-103 (1975)).
This example provides an example of how one can measure peroxidase activity. Initial rates of peroxidase activity were measured by monitoring the accumulation of the radical cation of ABTS at 414 nm (Childs et al., Biochem J., 145:93-103 (1975)). Enzyme (1 μM) was mixed with 10 mM ABTS in 200 mM phosphate buffer (pH 5.0) in a cuvette at room temperature. Samples were zeroed and reactions were initiated with the addition of H2O2 to a concentration of 20 mM. The absorbance at 414 nm was monitored for 5 minutes. Rates were determined from the steepest portion of the time course. An extinction coefficient of […] for ABTS was used.

The nature of data set [3]: Peroxygenase substrate activity profile. In kind it is biochemical. To be noted: 20 mM H2O2. As to the method:
The chimeras were assayed for hydroxylation of p-nitrophenoxydodecanoic acid (12-pNCA), a fatty acid analog that is hydroxylated by CYP102A1 and CYP102A2 to yield p-nitrophenolate (Schwaneberg et al., Anal Biochem 269,359-366 (1999)). […] When hydroxylation rates for the parent CYP102 enzymes were monitored using the maximum soluble concentrations of these substrates, activity could only be detected on 2-phenoxy-ethanol.
Chimeras were assayed for peroxygenase activity on 12-pNCA, 2-phenoxy -ethanol and allyloxy-benzene. […] Rates are reported in nmol product/nmol P450/minute. […] Those with no activity include 65-256 and 277-365. Those with new activity include 165-256, 191-335, and 43-135.
This Example provides one method by which peroxygenase activity of a P450 enzyme may be characterized. First order rates for p-nitrophenolate accumulation were determined using 1 μM enzyme, 20 mM H2O2, 250 μM 12-pNCA and 0.5% dimethyl sulfoxide (DMSO) in 100 mM Tris-HCl (pH 8.2) at room temperature. Enzyme, substrate, buffer and DMSO were combined in a cuvette and zeroed at 410 nm. Reaction mixtures were incubated for 4 minutes and initiated by the addition of H2O2 to a final concentration of 20 mM. Initial rates were determined by monitoring the accumulation of p-nitrophenolate at 410 nm, and data from the first six seconds were used to determine initial rates. […] The extinction coefficient of p-nitrophenolate is 13,200 M^−1cm^−1 (Schwaneberg et al., Anal Biochem 269:359-366 (1999)).
Rates on 2-phenoxy-ethanol and allyloxy-benzene were determined using 2 μM enzyme, 20 mM H2O2, 1% DMSO, and 1% acetone in 100 mM N-[2-hydroxyethyl]piperazine-N′-[3-propanesulfonic acid] (Epps) (pH 8.2) at room temperature. Substrate concentrations for 2-phenoxy-ethanol (100 mM) and allyloxy benzene (50 mM) maintained saturation. Reactions were initiated by the addition of H2O2 and quenched at appropriate times using an equal volume of a solution containing 4M urea and 100 mM NaOH. 120 μl of 0.6% 4-AAP was added, followed by mixing and addition of 120 μl of 0.6% potassium persulfate. Color was allowed to develop for 20 minutes before absorbance was read at 500 nm. Rates were determined from the linear region of the time course. The major products were determined by GC/MS to be the hemiacetal, which decomposes to phenol. The extinction coefficient for the 4-AAP/phenol complex was determined to be 4,800 M^−1cm^−1. The results can be seen in FIG. 4.

B1: CYP102A2: parent P450 heme domain from Bacillus subtilis, with the F88A mutation (protein, listed as Bacillus subtilis)
chain: KETSPIPQPKTFGPLGNLPLIDKDKPTLSLIKLAEEQGPIFQIHTPAGTTIVVSGHELVKEVCDEERFDKSIEGALEKVRAFSGDGLATSWTHEPNWRKAHNILMPTFSQRAMKDYHEKMVDIAVQLIQKWARLNPNEAVDVPGDMTRLTLDTIGLCGFNYRFNSYYRETPHPFINSMVRALDEAMHQMQRLDVQDKLMVRTKRQFRYDIQTMFSLVDSIIAERRANGDQDEKDLLARMLNVEDPETGEKLDDENIRFQIITFLIAGHETTSGLLSFATYFLLKHPDKLKKAYEEVDRVLTDAAPTYKQVLELTYIRMILNESLRLWPTAPAFSLYPKEDTVIGGKFPITTNDRISVLIPQLHRDRDAWGKDAEEFRPERFEHQDQVPHHAYKPFGNGQRACIGMQFALHEATLVLGMILKYFTLIDHENYELDIKQTLTLKPGDFHISVQSRHQEAIHADVQAAE
B1: the Tm in data set [1] came to 44 °C. In data set [2], the Peroxidase activity was 0.4 nmol product/nmol P450/min and the “peroxidase activity relative to parents” value is given as “low, but detectable peroxidase activity”.

B2: Chimera 70-299: CYP102A1 heme domain with residues 70-299 from CYP102A2 (protein)
chain: TIKEMPQPKTFGELKNLPLLNTDKPVQALMKIADELGEIFKFEAPGRVTRYLSSQRLIKEACDESRFDKSIEGALEKVRAFSGDGLATSWTHEPNWRKAHNILMPTFSQRAMKDYHEKMVDIAVQLIQKWARLNPNEAVDVPGDMTRLTLDTIGLCGFNYRFNSYYRETPHPFINSMVRALDEAMHQMQRLDVQDKLMVRTKRQFRYDIQTMFSLVDSIIAERRANGDQDEKDLLARMLNVEDPETGEKLDDENIRFQIITFLIAGHETTSGLLSFATYFLLKHPDKLKKAYEEVDRVLTDPVPSYKQVKQLKYVGMVLNEALRLWPTAPAFSLYAKEDTVLGGEYPLEKGDELMVLIPQLHRDKTIWGDDVEEFRPERFENPSAIPQHAFKPFGNGQRACIGQQFALHEATLVLGMMLKHFDFEDHTNYELDIKETLTLKPEGFVVKAKSKKIPLGGIPSPST
modifications: Chimeric Cytochrome P450 heme group sequence from Bacillus megaterium and Bacillus subtilis
notes: CYP102A1 heme domain with residues 70-299 from CYP102A2
Consider B2, for which, in data set [1], the Tm is 42 °C. Also, the Peroxidase activity in data set [2] is given as 0.8 nmol product/nmol P450/min. In addition, the “substrate activity profile relative to parents” value in data set [3] is recorded as “altered activity”.

B3: Chimera 364-403: CYP102A1 heme domain with residues 364-403 from CYP102A2 (protein)
chain: TIKEMPQPKTFGELKNLPLLNTDKPVQALMKIADELGEIFKFEAPGRVTRYLSSQRLIKEACDESRFDKNLSQALKFVRDFAGDGLATSWTHEKNWKKAHNILLPSFSQQAMKGYHAMMVDIAVQLVQKWERLNADEHIEVPEDMTRLTLDTIGLCGFNYRFNSFYRDQPHPFITSMVRALDEAMNKLQRANPDDPAYDENKRQFQEDIKVMNDLVDKIIADRKASGEQSDDLLTHMLNGKDPETGEPLDDENIRYQIITFLIAGHETTSGLLSFALYFLVKNPHVLQKAAEEAARVLVDPVPSYKQVKQLKYVGMVLNEALRLWPTAPAFSLYAKEDTVLGGEYPLEKGDELMVLIPQLHRDRDAWGKDAEEFRPERFEHQDQVPHHAYKPFGNGQRACIGMQFALHEATLVLGMMLKHFDFEDHTNYELDIKETLTLKPEGFVVKAKSKKIPLGGIPSPST
modifications: Chimeric Cytochrome P450 heme group sequence from Bacillus megaterium and Bacillus subtilis
notes: CYP102A1 heme domain with residues 364-403 from CYP102A2
Consider B3, for which the Tm in data set [1] was found to be 51 °C. Further, in data set [2], the Peroxidase activity is on record as 1 nmol product/nmol P450/min. For the same molecule, the “substrate activity profile relative to parents” value in data set [3] is “parent-like profiles”.

B4: Chimera 169-197M: mirror chimera of 169-197, sequences from opposite parents at every position (protein)
chain: KETSPIPQPKTFGPLGNLPLIDKDKPTLSLIKLAEEQGPIFQIHTPAGTTIVVSGHELVKEVCDEERFDKSIEGALEKVRAFSGDGLATSWTHEPNWRKAHNILMPTFSQRAMKDYHEKMVDIAVQLIQKWARLNPNEAVDVPGDMTRLTLDTIGLCGFNYRFNSYYREQPHPFITSMVRALDEAMNKLQRANPDDPAMVRTKRQFRYDIQTMFSLVDSIIAERRANGDQDEKDLLARMLNVEDPETGEKLDDENIRFQIITFLIAGHETTSGLLSFATYFLLKHPDKLKKAYEEVDRVLTDAAPTYKQVLELTYIRMILNESLRLWPTAPAFSLYPKEDTVIGGKFPITTNDRISVLIPQLHRDRDAWGKDAEEFRPERFEHQDQVPHHAYKPFGNGQRACIGMQFALHEATLVLGMILKYFTLIDHENYELDIKQTLTLKPGDFHISVQSRHQEAIHADVQAAE
modifications: Chimeric Cytochrome P450 heme group sequence from Bacillus megaterium and Bacillus subtilis
As to B4, the Tm in data set [1] was 43 °C. In data set [2], the Peroxidase activity is listed as 0.3 nmol product/nmol P450/min and the “peroxidase activity relative to parents” value is on record as “did not show similarly enhanced levels”. For the same molecule, the “substrate activity profile relative to parents” value in data set [3] is listed as “altered activity”.

B5: Chimera 165-256M: mirror chimera of 165-256, sequences from opposite parents at every position (protein)
chain: KETSPIPQPKTFGPLGNLPLIDKDKPTLSLIKLAEEQGPIFQIHTPAGTTIVVSGHELVKEVCDEERFDKSIEGALEKVRAFSGDGLATSWTHEPNWRKAHNILMPTFSQRAMKDYHEKMVDIAVQLIQKWARLNPNEAVDVPGDMTRLTLDTIGLCGFNYRFNSFYRDQPHPFITSMVRALDEAMNKLQRANPDDPAYDENKRQFQEDIKVMNDLVDKIIADRKASGEQSDDLLTHMLNGKDPETGEPLDDENIRYQIITFLIAGHETTSGLLSFATYFLLKHPDKLKKAYEEVDRVLTDAAPTYKQVLELTYIRMILNESLRLWPTAPAFSLYPKEDTVIGGKFPITTNDRISVLIPQLHRDRDAWGKDAEEFRPERFEHQDQVPHHAYKPFGNGQRACIGMQFALHEATLVLGMILKYFTLIDHENYELDIKQTLTLKPGDFHISVQSRHQEAIHADVQAAE
modifications: Chimeric Cytochrome P450 heme group sequence from Bacillus megaterium and Bacillus subtilis
On to B5, for which, in data set [1], the Tm came to 50 °C. In addition, in data set [2], the Peroxidase activity was 3.5 nmol product/nmol P450/min and the “peroxidase activity relative to parents” value was “did not show similarly enhanced levels”. For the same molecule, the “substrate activity profile relative to parents” value in data set [3] is on record as “parent-like profiles”.
